Results taken from patent US8722052B2, “Vaccinia virus protein A46 peptide and use thereof” (priority 2008, dated 2014).

Columns and labels:
RAW264.7 cells = test: MTT cell viability assay, RAW264.7; assay type: cell-based, murine
Method: (§1) FIGS. 5A and B are bar charts showing the dose-dependent inhibitory effect of A464R on LPS-induced TNFα in murine RAW264.7 cells. A464 (SEQ ID NO. 20) was added to the cells at a concentration of 5, 20 or 50 μM 1 hour before stimulating with 100 ng/ml LPS. Supernatant was collected 24 hours after stimulation and assayed for TNFα by ELISA (A) and cells were assayed for viability by the MTT assay (B.). No peptides were added to the control wells (black bars). Data is representative of at least three experiments each performed in triplicate and is expressed as mean±s.d;
FIGS. 10A and B are bar charts showing the effect of A464 on poly(I:C)-induced TNFα in murine RAW264.7 cells. Cells were seeded in 96 well plates (1.5×10^5 cells/nil) 24 hours before treatment. A464 (SEQ ID NO. 20) was added to the cells at a concentration of 5, 20 or 50 μM 1 hour before stimulating with 25 μg/ml Poly(I:C). […] Data is representative of at least three experiments each performed in triplicate and is expressed as mean±s.d;
Cell viability was measured by assessing mitochondrial function using an MTT (3-(4,5-Dimethylthiazol-2-yl)-2,5-diphenyltetrazolium bromide) assay. […] MTT was then removed and 200 μl per well of dimethyl sulphoxide (DMSO) was added and cells incubated for 20 min at 37° C. in the dark, prior to absorbance being read at 595 nm on a spectrophotometer.

cell viability = test: MTT cell viability assay, more detailed investigation of screening hits; assay type: cell-based; details: cell type not stated
Method: Cell viability was measured by assessing mitochondrial function using an MTT (3-(4,5-Dimethylthiazol-2-yl)-2,5-diphenyltetrazolium bromide) assay. Cells were seeded into 96 well plates and treated with peptides and agonists as described above in relation to the Figs. Wells containing medium only served as a blank control. To terminate treatment of cells, medium was removed and the cells were washed once with PBS. 200 μl per well of 1 mg/ml MTT in PBS was added directly to the cells and the plates were incubated at 37° C. for 14-16 hrs in the dark. MTT was then removed and 200 μl per well of dimethyl sulphoxide (DMSO) was added and cells incubated for 20 min at 37° C. in the dark, prior to absorbance being read at 595 nm on a spectrophotometer.

TLR4 = target: T1, TLR4 (Mus musculus, UniProt Q9QUK6); test: LPS-induced TNFα in RAW264.7 cells, ELISA; assay type: cell-based, murine; set-up: endogenous in cells; host or cells: RAW264.7; immortalised murine bone-marrow-derived macrophages
T1 sequence (Q9QUK6 26-835): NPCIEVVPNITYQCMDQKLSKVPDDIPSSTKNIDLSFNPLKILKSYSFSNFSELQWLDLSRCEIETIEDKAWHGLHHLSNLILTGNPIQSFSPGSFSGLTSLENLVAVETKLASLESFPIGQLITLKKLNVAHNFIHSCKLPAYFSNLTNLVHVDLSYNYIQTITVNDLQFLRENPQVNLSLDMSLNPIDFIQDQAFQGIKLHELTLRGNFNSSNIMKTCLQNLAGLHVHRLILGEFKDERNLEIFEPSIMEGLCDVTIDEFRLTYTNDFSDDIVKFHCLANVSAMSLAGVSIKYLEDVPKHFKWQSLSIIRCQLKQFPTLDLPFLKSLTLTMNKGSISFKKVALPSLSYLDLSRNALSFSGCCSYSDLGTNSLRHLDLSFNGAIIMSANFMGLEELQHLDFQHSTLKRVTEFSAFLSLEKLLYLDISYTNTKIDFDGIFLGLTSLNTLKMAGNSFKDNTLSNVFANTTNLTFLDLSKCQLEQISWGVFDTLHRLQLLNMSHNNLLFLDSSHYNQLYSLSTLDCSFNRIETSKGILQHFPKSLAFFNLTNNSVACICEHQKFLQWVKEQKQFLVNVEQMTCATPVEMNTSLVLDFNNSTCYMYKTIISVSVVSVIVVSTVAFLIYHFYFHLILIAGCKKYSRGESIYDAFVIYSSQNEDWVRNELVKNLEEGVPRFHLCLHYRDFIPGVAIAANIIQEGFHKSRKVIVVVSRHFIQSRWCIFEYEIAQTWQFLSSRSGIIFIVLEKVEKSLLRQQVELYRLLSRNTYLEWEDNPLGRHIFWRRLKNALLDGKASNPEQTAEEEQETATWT
T1 sequence (Q9JHF9 19-160 partner): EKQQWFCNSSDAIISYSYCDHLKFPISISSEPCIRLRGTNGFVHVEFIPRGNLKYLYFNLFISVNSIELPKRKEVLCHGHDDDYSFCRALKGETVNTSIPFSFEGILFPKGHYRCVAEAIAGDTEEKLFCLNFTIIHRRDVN
Method: as §1
FIGS. 6A and B are bar charts showing the effect of peptides derived from A46 on LPS-induced TNFα in murine RAW264.7 cells. A46 peptides were added to the cells at a concentration of 1 or 5 μM 1 hour before stimulating with 10 ng/ml LPS. Supernatants were collected 6 hours after stimulation and assayed for TNFα by ELISA. No peptides were added into the control wells (black bars). (A) peptides A461-A467 (SEQ ID NO. 17 to 23). (B) peptides A468-A4614 (SEQ ID NO. 24 to 30) (excluding A4610 SEQ ID NO. 26 and A4612 SEQ ID NO. 28). Data is representative of at least two experiments each performed in triplicate and is expressed as mean±s.d;
FIGS. 22 A and B are bar charts showing the effect of short A467 and A464 peptides, with 9R on either N- or C-terminus, on LPS- induced TNFα production in murine RAW264.7 cells. Cells were seeded in 96 well plates (1.5×10^5 cells/ml) 24 hours before treatment. Short A467 and short A464 peptides with the 9R delivery sequence on either the C-terminus (sA464C9R) (SEQ ID NO. 56) (A) or the N-terminus (sA464N9R) (SEQ ID NO. 57) (B) were added to the cells at a concentration of 5 or 25 μM 1 hour before stimulating with 10 ng/ml LPS. Normal full length A467 (SEQ ID NO. 23) and A464 (SEQ ID NO. 20) peptides were added at a concentration of 5 μM as positive controls. Supernatants were collected 6 hours after stimulation with the agonist and assayed for TNFα, by ELISA. No peptides were added to the control wells (black bars). Data is representative of at least three experiments each performed in triplicate and is expressed as mean±s.d;
Cytokine and chemokine production from cells or mouse serum was measured by ELISA using Duoset kits from R&D systems, according to the manufacturer's instructions.

In the case of KYSFKLILAEYRRRRRRRRR [Peptide A464], the “toxicity (MTT) in the presence of LPS” value (RAW264.7 cells; 100 ng/ml LPS, 24 h) is reported as “no toxicity at the concentrations of 5 and 20 μM”, the “toxicity (MTT) in the absence of LPS” value (RAW264.7 cells; no LPS) is reported as “some cytotoxicity at 20 μM” and the “cell viability (MTT assay)” value (cell viability) is reported as “less toxic”. For the same sequence, the “inhibition of LPS-induced mTNFα” value (TLR4; peptide 1 or 5 μM 1 h before 10 ng/ml LPS, 6 h) was “inhibited LPS-induced mTNFα at 1 and 5 μM” and the “inhibition of LPS-induced murine TNFα production” value (TLR4; peptide 5, 20 or 50 μM 1 h before 100 ng/ml LPS, 24 h) was “potently inhibited LPS-induced murine TNFα production in RAW264.7 cells at just 5 μM”.
